Results published in publication PMC10881741, “Structural modifications toward improved lead-203/lead-212 peptide-based image-guided alpha-particle radiopharmaceutical therapies for neuroendocrine tumors” (European Journal of Nuclear Medicine and Molecular Imaging, 2023).
Where two headings read alike, the source gives them in different places.

Tests used:
[1] = In vivo biodistribution of ^203Pb-labeled peptides; parameters: species or system mice; details: female, athymic nu/nu, mouse, total radioactivity; for tissue uptake at 3 h / tissue uptake at 24 h / tissue uptake at 1 h / tissue uptake at 6 h: intravenous; for tissue to tissue ratio at 1 h / tissue to tissue ratio at 3 h / tissue to tissue ratio at 24 h: iv
Procedure: (§1) AR42J cells (5.0 × 10^6 cells/animal) were implanted subcutaneously on the left shoulder of female athymic nu/nu mice. […] Extra groups of mice were co-administered 37 kBq of ^203Pb-PSC-PEG2-TOC with DL-lysine (400 mg/kg) to determine the effect of amino acid on renal uptake of the radiopharmaceutical. Mice (n=3 per time point) were euthanized at 1, 3, and 24 h post-administration, and tumors and organs/tissues of interest were excised and weighed. The radioactivities of the samples were measured using the gamma counter.

AR42J tumor xenograft = test: In vivo biodistribution of ^203Pb-labeled peptides; parameters: species or system mice; details: DL-lysine 400 mg/kg, 3 h post-administration
Procedure: as §1

Compound `C[C@@H](O)[C@@H]1NC(=O)[C@H](CCCCN)NC(=O)[C@@H](Cc2c[nH]c3ccccc23)NC(=O)[C@H](Cc2ccc(O)cc2)NC(=O)[C@@H](NC(=O)[C@@H](Cc2ccccc2)NC(=O)CCOCCOCCNC(=O)CN2CCN(CC(=O)O)CCN(CC(N)=O)CCN(CC(=O)O)CC2)CSSC[C@@H](C(=O)N[C@H](CO)[C@@H](C)O)NC1=O` [[^203Pb]Pb-PSC-PEG2-TOC, metal not drawn] has a tissue uptake at 3 h ([1]; lung, 37 kBq, 3 h (No Lys), Table S4 study, read-out: Lung) of 4.61 ± 3.75 %ID/g, a tissue uptake at 3 h ([1]; lung, 37 kBq, 3 h post-administration, read-out: Lung) of 0.38 ± 0.07 %ID/g and a tissue uptake at 24 h ([1]; lung, 37 kBq, 24 h post-administration, read-out: Lung) of 1.46 ± 0.4 %ID/g. It also gave a tissue uptake at 1 h ([1]; lung, 1 h, DL-lysine co-administered, read-out: Lung) of 4.48 ± 4.47 %ID/g, a tissue uptake at 3 h ([1]; lung, 3 h (Blocking): 10 nmol unlabeled PSC-PEG2-TOC co-administered, read-out: Lung) of 0.26 ± 0.03 %ID/g and a tissue uptake at 3 h ([1]; lung, 3 h, DL-lysine co-administered, read-out: Lung) of 4.76 ± 3.19 %ID/g. For the same compound, the tissue uptake at 6 h ([1]; lung, DL-lysine co-administered, read-out: Lung) was 5.6 ± 1.27 %ID/g, the tissue uptake at 24 h ([1]; lung, 24 h, DL-lysine co-administered, read-out: Lung) was 1.11 ± 0.74 %ID/g and the tissue uptake at 1 h ([1]; muscle, 37 kBq, 1 h post-administration, read-out: Muscle) was 0.29 ± 0.27 %ID/g. The tissue uptake at 3 h ([1]; muscle, 37 kBq, 3 h (No Lys), Table S4 study, read-out: Muscle) was 0.17 ± 0.1 %ID/g, the tissue uptake at 3 h ([1]; muscle, 37 kBq, 3 h post-administration, read-out: Muscle) was 0.03 ± 0.01 %ID/g and the tissue uptake at 24 h ([1]; muscle, 37 kBq, 24 h post-administration, read-out: Muscle) was 0.02 ± 0.01 %ID/g. The tissue uptake at 1 h ([1]; muscle, 1 h, DL-lysine co-administered, read-out: Muscle) was 0.48 ± 0.26 %ID/g, the tissue uptake at 3 h ([1]; muscle, 3 h (Blocking): 10 nmol unlabeled PSC-PEG2-TOC co-administered, read-out: Muscle) was 0.06 ± 0.03 %ID/g and the tissue uptake at 3 h ([1]; muscle, 3 h, DL-lysine co-administered, read-out: Muscle) was 0.03 ± 0.01 %ID/g. The tissue uptake at 6 h ([1]; muscle, DL-lysine co-administered, read-out: Muscle) was 0.02 ± 0.02 %ID/g, the tissue uptake at 24 h ([1]; muscle, 24 h, DL-lysine co-administered, read-out: Muscle) was 0.01 ± 0.01 %ID/g and the tissue uptake at 3 h ([1]; pancreas, 37 kBq, 3 h (No Lys), Table S4 study, read-out: Pancreas) was 2.29 ± 1.63 %ID/g. The tissue uptake at 1 h ([1]; pancreas, 1 h, DL-lysine co-administered, read-out: Pancreas) was 5.04 ± 1.33 %ID/g, the tissue uptake at 3 h ([1]; pancreas, 3 h (Blocking): 10 nmol unlabeled PSC-PEG2-TOC co-administered, read-out: Pancreas) was 0.22 ± 0.04 %ID/g and the tissue uptake at 3 h ([1]; pancreas, 3 h, DL-lysine co-administered, read-out: Pancreas) was 2.1 ± 0.68 %ID/g. The tissue uptake at 6 h ([1]; pancreas, DL-lysine co-administered, read-out: Pancreas) was 0.75 ± 0.16 %ID/g, the tissue uptake at 24 h ([1]; pancreas, 24 h, DL-lysine co-administered, read-out: Pancreas) was 0.33 ± 0.08 %ID/g and the tissue uptake at 1 h ([1]; small intestine, 37 kBq, 1 h post-administration, read-out: Small intestine) was 1.34 ± 0.35 %ID/g. For the same compound, the tissue uptake at 3 h ([1]; small intestine, 37 kBq, 3 h (No Lys), Table S4 study, read-out: Small intestine) was 0.6 ± 0.11 %ID/g, the tissue uptake at 3 h ([1]; small intestine, 37 kBq, 3 h post-administration, read-out: Small intestine) was 1.85 ± 0.22 %ID/g and the tissue uptake at 24 h ([1]; small intestine, 37 kBq, 24 h post-administration, read-out: Small intestine) was 0.17 ± 0.01 %ID/g. It also gave a tissue uptake at 1 h ([1]; small intestine, 1 h, DL-lysine co-administered, read-out: Small intestine) of 1.9 ± 0.74 %ID/g, a tissue uptake at 3 h ([1]; small intestine, 3 h (Blocking): 10 nmol unlabeled PSC-PEG2-TOC co-administered, read-out: Small intestine) of 0.81 ± 0.71 %ID/g and a tissue uptake at 3 h ([1]; small intestine, 3 h, DL-lysine co-administered, read-out: Small intestine) of 2.37 ± 0.78 %ID/g. It also gave a tissue uptake at 6 h ([1]; small intestine, DL-lysine co-administered, read-out: Small intestine) of 0.94 ± 0.32 %ID/g, a tissue uptake at 24 h ([1]; small intestine, 24 h, DL-lysine co-administered, read-out: Small intestine) of 0.15 ± 0.02 %ID/g and a tissue uptake at 1 h ([1]; spleen, 37 kBq, 1 h post-administration, read-out: Spleen) of 1.21 ± 0.17 %ID/g. It also gave a tissue uptake at 3 h ([1]; spleen, 37 kBq, 3 h (No Lys), Table S4 study, read-out: Spleen) of 0.97 ± 0.47 %ID/g, a tissue uptake at 3 h ([1]; spleen, 37 kBq, 3 h post-administration, read-out: Spleen) of 0.54 ± 0.29 %ID/g and a tissue uptake at 24 h ([1]; spleen, 37 kBq, 24 h post-administration, read-out: Spleen) of 0.28 ± 0.07 %ID/g. The tissue uptake at 1 h ([1]; spleen, 1 h, DL-lysine co-administered, read-out: Spleen) was 1.04 ± 0.4 %ID/g, the tissue uptake at 3 h ([1]; spleen, 3 h (Blocking): 10 nmol unlabeled PSC-PEG2-TOC co-administered, read-out: Spleen) was 0.14 ± 0.07 %ID/g and the tissue uptake at 3 h ([1]; spleen, 3 h, DL-lysine co-administered, read-out: Spleen) was 0.81 ± 0.3 %ID/g. It also gave a tissue uptake at 6 h ([1]; spleen, DL-lysine co-administered, read-out: Spleen) of 0.73 ± 0.17 %ID/g, a tissue uptake at 24 h ([1]; spleen, 24 h, DL-lysine co-administered, read-out: Spleen) of 0.41 ± 0.28 %ID/g and a tissue uptake at 3 h ([1]; stomach, 37 kBq, 3 h (No Lys), Table S4 study, read-out: Stomach) of 0.95 ± 0.13 %ID/g. It also gave a tissue uptake at 1 h ([1]; stomach, 1 h, DL-lysine co-administered, read-out: Stomach) of 1.46 ± 0.32 %ID/g, a tissue uptake at 3 h ([1]; stomach, 3 h (Blocking): 10 nmol unlabeled PSC-PEG2-TOC co-administered, read-out: Stomach) of 0.36 ± 0.15 %ID/g and a tissue uptake at 3 h ([1]; stomach, 3 h, DL-lysine co-administered, read-out: Stomach) of 2.36 ± 0.44 %ID/g. The tissue uptake at 6 h ([1]; stomach, DL-lysine co-administered, read-out: Stomach) was 0.78 ± 0.2 %ID/g, the tissue uptake at 24 h ([1]; stomach, 24 h, DL-lysine co-administered, read-out: Stomach) was 0.3 ± 0.12 %ID/g and the tissue uptake at 1 h ([1]; tumor, 37 kBq, 1 h post-administration, read-out: Tumor) was 28.2 ± 8.63 %ID/g. The tissue uptake at 3 h ([1]; tumor, 37 kBq, 3 h (No Lys), Table S4 study, read-out: Tumor) was 19.8 ± 1.61 %ID/g, the tissue uptake at 3 h ([1]; tumor, 37 kBq, 3 h post-administration, read-out: Tumor) was 22.8 ± 2.8 %ID/g and the tissue uptake at 24 h ([1]; tumor, 37 kBq, 24 h post-administration, read-out: Tumor) was 12.2 ± 3.81 %ID/g. For the same compound, the tissue uptake at 1 h ([1]; tumor, 1 h, DL-lysine co-administered, read-out: Tumor) was 24.4 ± 1.85 %ID/g, the tissue uptake at 3 h ([1]; tumor, 3 h (Blocking): 10 nmol unlabeled PSC-PEG2-TOC co-administered, read-out: Tumor) was 2.41 ± 0.46 %ID/g and the tissue uptake at 3 h ([1]; tumor, 3 h, DL-lysine co-administered, read-out: Tumor) was 22.9 ± 1.09 %ID/g. The tissue uptake at 6 h ([1]; tumor, DL-lysine co-administered, read-out: Tumor) was 18.9 ± 1.86 %ID/g, the tissue uptake at 24 h ([1]; tumor, 24 h, DL-lysine co-administered, read-out: Tumor) was 7.44 ± 0.41 %ID/g and the tissue to tissue ratio at 1 h ([1]; tumor/blood, 37 kBq, 1 h post-administration, read-out: Tumor/blood ratio) was 78.3. For the same compound, the tissue to tissue ratio at 3 h ([1]; tumor/blood, 37 kBq, 3 h post-administration, read-out: Tumor/blood ratio) was 456, the tissue to tissue ratio at 24 h ([1]; tumor/blood, 37 kBq, 24 h post-administration, read-out: Tumor/blood ratio) was 610 and the tissue to tissue ratio at 1 h ([1]; tumor/kidneys, 37 kBq, 1 h post-administration, read-out: Tumor/kidneys ratio) was 1.37. For the same compound, the tissue to tissue ratio at 3 h ([1]; tumor/kidneys, 37 kBq, 3 h post-administration, read-out: Tumor/kidneys ratio) was 1.44, the tissue to tissue ratio at 24 h ([1]; tumor/kidneys, 37 kBq, 24 h post-administration, read-out: Tumor/kidneys ratio) was 8.36 and the tissue to tissue ratio at 1 h ([1]; tumor/liver, 37 kBq, 1 h post-administration, read-out: Tumor/liver ratio) was 78.3. It also gave a tissue to tissue ratio at 3 h ([1]; tumor/liver, 37 kBq, 3 h post-administration, read-out: Tumor/liver ratio) of 99.1, a tissue to tissue ratio at 24 h ([1]; tumor/liver, 37 kBq, 24 h post-administration, read-out: Tumor/liver ratio) of 153 and a tissue to tissue ratio at 1 h ([1]; tumor/lung, 37 kBq, 1 h post-administration, read-out: Tumor/lung ratio) of 7.87. It also gave a tissue to tissue ratio at 3 h ([1]; tumor/lung, 37 kBq, 3 h post-administration, read-out: Tumor/lung ratio) of 60, a tissue to tissue ratio at 24 h ([1]; tumor/lung, 37 kBq, 24 h post-administration, read-out: Tumor/lung ratio) of 8.36 and a tissue to tissue ratio at 1 h ([1]; tumor/muscle, 37 kBq, 1 h post-administration, read-out: Tumor/muscle ratio) of 97.2. For the same compound, the tissue to tissue ratio at 3 h ([1]; tumor/muscle, 37 kBq, 3 h post-administration, read-out: Tumor/muscle ratio) was 760, the tissue to tissue ratio at 24 h ([1]; tumor/muscle, 37 kBq, 24 h post-administration, read-out: Tumor/muscle ratio) was 610 and the “Reduction of renal accumulation by co-administration of DL-lysine” value (AR42J tumor xenograft) was 56%.
